In the supplement of paper PMC10065799, “High-throughput profiling of sequence recognition by tyrosine kinases and SH2 domains using bacterial peptide display” (eLife, 2023):

How the values were obtained:
Grb2 SH2 = Grb2 SH2 (UniProt P62993); assay: SH2 binding enrichment of the phosphorylated peptide, bacterial display (enrichment ratio); higher = better substrate or ligand; peptides without Tyr show the background
c-Src SH2 = assay: as above
SHP2-C SH2 = assay: as above
Hck = Hck (UniProt P08631); assay: phosphorylation enrichment, bacterial display (enrichment ratio); higher = better substrate or ligand; peptides without Tyr show the background
Sequence of Hck (P08631 whole entry, looked up): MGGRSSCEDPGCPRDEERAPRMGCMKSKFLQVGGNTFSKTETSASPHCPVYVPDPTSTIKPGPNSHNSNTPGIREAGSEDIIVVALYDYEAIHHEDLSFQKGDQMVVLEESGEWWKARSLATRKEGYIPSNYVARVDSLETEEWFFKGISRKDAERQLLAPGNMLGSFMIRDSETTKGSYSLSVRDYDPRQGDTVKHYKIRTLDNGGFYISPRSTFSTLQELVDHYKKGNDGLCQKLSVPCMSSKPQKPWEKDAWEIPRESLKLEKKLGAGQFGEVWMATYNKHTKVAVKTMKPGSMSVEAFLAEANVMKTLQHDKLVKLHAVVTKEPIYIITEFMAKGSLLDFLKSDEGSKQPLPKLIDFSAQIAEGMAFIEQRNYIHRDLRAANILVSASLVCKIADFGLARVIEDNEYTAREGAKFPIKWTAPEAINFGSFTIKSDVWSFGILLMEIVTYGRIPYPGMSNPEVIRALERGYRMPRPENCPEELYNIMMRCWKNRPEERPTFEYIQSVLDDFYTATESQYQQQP

c-Src = assay: as above
Fyn = Fyn (UniProt P06241); assay: as above
Sequence of Fyn (P06241 whole entry, looked up): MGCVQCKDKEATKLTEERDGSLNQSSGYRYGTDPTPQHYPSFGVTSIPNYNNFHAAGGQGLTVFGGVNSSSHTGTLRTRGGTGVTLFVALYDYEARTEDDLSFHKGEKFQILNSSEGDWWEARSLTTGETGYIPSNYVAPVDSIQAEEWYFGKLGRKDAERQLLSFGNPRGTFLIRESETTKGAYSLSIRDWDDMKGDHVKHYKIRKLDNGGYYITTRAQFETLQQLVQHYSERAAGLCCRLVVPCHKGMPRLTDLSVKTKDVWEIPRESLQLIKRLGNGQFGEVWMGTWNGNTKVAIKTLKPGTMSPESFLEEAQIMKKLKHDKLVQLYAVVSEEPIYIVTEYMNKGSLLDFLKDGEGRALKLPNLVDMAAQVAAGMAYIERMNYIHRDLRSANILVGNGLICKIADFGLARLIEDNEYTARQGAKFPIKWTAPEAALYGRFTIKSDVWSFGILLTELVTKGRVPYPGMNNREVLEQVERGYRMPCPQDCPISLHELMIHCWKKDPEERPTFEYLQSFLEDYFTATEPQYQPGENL

c-Abl (mouse) = assay: as above
Jak2 = Jak2 (UniProt O60674); assay: as above
Fes = Fes (UniProt P07332); assay: as above
EPHB1 = EPHB1 (UniProt P54762); assay: as above
Sequence of EPHB1 (P54762 whole entry, looked up): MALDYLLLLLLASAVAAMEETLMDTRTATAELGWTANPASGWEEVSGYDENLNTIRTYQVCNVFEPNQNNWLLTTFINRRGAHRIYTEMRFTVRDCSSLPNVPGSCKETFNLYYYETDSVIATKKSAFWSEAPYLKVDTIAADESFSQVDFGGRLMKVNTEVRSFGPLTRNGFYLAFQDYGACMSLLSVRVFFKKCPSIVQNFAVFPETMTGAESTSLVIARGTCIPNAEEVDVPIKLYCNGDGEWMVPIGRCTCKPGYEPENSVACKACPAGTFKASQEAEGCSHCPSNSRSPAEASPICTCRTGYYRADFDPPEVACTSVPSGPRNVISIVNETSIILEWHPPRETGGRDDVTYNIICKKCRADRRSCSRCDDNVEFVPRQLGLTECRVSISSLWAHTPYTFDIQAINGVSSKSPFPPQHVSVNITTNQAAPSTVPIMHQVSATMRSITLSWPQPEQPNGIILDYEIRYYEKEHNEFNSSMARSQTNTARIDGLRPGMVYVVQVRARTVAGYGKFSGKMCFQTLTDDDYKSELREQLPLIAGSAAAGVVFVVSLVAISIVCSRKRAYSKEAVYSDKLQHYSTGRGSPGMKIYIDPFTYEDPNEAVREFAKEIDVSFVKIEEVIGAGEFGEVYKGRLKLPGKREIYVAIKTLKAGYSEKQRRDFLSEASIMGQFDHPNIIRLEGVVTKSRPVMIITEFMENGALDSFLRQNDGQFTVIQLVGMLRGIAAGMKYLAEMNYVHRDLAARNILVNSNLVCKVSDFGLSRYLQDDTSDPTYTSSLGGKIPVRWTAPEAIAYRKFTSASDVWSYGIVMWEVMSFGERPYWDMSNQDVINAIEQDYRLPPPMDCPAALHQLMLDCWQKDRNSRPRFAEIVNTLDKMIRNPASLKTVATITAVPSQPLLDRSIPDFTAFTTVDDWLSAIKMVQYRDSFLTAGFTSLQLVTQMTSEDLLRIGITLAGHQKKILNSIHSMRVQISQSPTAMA

FGFR3 = FGFR3 (UniProt P22607); assay: as above
Sequence of FGFR3 (P22607 whole entry, looked up): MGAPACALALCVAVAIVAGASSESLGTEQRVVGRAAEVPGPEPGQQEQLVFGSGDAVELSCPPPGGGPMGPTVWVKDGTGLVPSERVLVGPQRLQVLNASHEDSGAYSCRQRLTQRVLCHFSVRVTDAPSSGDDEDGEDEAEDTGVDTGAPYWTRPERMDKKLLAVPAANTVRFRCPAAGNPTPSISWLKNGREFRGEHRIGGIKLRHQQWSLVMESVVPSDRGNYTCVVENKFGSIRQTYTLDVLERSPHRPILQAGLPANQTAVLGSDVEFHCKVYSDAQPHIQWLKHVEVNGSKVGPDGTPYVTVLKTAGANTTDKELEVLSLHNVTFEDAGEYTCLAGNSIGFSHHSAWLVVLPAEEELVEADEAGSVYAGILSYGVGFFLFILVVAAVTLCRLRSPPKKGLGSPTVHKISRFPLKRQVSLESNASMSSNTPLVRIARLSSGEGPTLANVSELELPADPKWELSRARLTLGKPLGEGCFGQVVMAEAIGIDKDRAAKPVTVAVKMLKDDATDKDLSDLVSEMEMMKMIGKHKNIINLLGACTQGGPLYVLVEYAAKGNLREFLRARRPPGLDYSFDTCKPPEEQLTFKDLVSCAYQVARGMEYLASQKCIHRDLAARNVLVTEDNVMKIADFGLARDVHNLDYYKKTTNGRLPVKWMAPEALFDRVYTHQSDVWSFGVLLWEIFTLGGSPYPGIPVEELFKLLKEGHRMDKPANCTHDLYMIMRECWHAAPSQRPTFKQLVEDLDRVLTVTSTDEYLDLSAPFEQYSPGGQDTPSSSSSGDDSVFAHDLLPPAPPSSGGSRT

EPHB2 = EPHB2 (UniProt P29323); assay: as above
Sequence of EPHB2 (P29323 whole entry, looked up): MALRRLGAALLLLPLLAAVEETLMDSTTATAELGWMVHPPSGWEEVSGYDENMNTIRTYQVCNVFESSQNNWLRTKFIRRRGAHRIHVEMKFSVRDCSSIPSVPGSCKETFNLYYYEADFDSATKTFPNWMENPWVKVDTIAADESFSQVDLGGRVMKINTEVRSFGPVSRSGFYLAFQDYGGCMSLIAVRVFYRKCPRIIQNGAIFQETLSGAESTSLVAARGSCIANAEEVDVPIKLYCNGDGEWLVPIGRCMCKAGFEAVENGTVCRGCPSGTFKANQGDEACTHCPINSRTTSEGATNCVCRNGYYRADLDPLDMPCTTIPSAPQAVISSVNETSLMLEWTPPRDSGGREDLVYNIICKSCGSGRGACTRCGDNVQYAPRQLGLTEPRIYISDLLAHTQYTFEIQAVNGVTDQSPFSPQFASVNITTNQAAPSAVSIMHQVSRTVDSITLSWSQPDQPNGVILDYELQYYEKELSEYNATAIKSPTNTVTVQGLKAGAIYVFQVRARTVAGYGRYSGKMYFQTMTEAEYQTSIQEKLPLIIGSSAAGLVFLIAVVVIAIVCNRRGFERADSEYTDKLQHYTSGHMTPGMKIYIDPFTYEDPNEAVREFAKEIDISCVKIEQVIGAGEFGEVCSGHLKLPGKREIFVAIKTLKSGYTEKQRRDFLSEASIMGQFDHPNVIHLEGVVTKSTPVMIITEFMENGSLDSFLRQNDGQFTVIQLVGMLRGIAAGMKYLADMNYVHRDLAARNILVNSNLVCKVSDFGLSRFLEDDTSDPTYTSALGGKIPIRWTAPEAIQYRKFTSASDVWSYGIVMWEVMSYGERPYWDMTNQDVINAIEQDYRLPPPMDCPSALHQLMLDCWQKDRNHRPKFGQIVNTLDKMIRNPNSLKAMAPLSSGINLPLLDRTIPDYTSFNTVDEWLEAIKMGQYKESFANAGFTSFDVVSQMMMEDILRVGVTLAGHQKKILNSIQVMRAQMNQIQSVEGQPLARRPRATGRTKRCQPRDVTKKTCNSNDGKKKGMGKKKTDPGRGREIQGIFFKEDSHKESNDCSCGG

FGFR1 = FGFR1 (UniProt P11362); assay: as above
Sequence of FGFR1 (P11362 whole entry, looked up): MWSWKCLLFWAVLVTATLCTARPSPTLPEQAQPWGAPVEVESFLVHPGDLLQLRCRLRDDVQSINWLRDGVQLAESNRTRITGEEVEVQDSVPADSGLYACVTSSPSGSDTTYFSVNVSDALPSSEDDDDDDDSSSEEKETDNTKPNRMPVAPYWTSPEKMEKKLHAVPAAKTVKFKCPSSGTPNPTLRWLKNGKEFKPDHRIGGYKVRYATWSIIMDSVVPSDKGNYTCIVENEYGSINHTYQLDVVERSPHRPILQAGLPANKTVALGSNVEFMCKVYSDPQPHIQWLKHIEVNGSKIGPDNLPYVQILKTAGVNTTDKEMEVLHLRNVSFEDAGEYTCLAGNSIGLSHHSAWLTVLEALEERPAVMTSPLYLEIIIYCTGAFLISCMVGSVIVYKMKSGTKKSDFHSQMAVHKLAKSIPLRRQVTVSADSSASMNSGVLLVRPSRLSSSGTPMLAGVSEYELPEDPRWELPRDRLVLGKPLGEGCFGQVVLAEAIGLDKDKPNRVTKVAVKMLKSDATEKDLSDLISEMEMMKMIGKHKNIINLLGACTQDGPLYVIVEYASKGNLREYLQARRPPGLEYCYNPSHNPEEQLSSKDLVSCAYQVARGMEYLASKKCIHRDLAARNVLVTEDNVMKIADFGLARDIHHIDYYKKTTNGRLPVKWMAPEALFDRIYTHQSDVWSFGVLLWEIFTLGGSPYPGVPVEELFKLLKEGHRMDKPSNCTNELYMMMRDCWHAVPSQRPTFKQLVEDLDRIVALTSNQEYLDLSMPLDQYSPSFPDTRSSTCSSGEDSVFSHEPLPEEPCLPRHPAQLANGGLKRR

MERTK = MERTK (UniProt Q12866); assay: as above
AncSZ = assay: as above
Fer (mouse) = assay: as above
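For SH2 binding enrichment of the phosphorylated peptide, bacterial display in this document: peptide library displayed on the E. coli surface as eCPX fusions, selected cells deep-sequenced, score is each peptide's frequency after selection divided by its frequency in the input.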
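For phosphorylation enrichment, bacterial display in this document: 11-residue human phosphosite peptides and single-mutation variants displayed on the E. coli surface, counted by deep sequencing, each peptide's frequency after selection divided by its frequency in the unselected input library; frequency after pTyr selection over input frequency; kinase dosed for 20-30% of maximal phosphorylation in three min.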

Sequence of Grb2 SH2 (P62993 whole entry, looked up): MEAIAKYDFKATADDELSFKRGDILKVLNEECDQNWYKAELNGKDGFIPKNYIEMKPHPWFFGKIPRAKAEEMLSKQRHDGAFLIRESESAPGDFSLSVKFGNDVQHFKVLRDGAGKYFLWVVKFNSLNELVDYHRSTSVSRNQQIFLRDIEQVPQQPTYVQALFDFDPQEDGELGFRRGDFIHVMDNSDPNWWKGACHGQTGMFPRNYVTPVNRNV

Row | Sequence | SH2 binding enrichment (Grb2 SH2) | SH2 binding enrichment (c-Src SH2) | SH2 binding enrichment (SHP2-C SH2) | phosphorylation enrichment (Hck) | phosphorylation enrichment (c-Src) | phosphorylation enrichment (Fyn) | phosphorylation enrichment (c-Abl (mouse)) | phosphorylation enrichment (Jak2) | phosphorylation enrichment (Fes) | phosphorylation enrichment (EPHB1) | phosphorylation enrichment (FGFR3) | phosphorylation enrichment (EPHB2) | phosphorylation enrichment (FGFR1) | phosphorylation enrichment (MERTK) | phosphorylation enrichment (AncSZ) | phosphorylation enrichment (Fer (mouse))
1 | AQQPIYVRVEG [NLRP7_Y318] | 0.84 | 0.609 | 0.682 | 1.74 | 3.6 | 2.18 | 1.54 | 0.965 | 0.963 | 5.88 | 0.787 | 4.96 | 1.12 | 2.46 | 0.967 | 0.707
2 | ARGMEYLASQK [FGFR2_Y616] | 0.763 | 0.369 | 0.755 | 0.385 | 0.398 | 0.534 | 0.669 | 0.563 | 0.657 | 0.376 | 0.433 | 0.461 | 0.443 | 0.394 | 0.576 | 0.37
3 | ARMTNCGLPRY [TSPAN12_Y138_Y138C] | 1.25 | 0.845 | 1 | 0.453 | 0.456 | 0.394 | 0.575 | 0.519 | 0.602 | 0.487 | 0.487 | 0.365 | 0.446 | 0.354 | 0.588 | 0.335
4 | ARMTNYGLPRY [TSPAN12_Y138] | 1 | 0.5 | 0.761 | 0.554 | 0.534 | 0.619 | 0.66 | 0.606 | 0.739 | 0.463 | 0.441 | 0.588 | 0.495 | 0.497 | 0.576 | 0.576
5 | ARVDTYCRHNF [HLA-DRB1_Y107_A103R_YF] | 1.01 | 0.757 | 0.743 | 0.45 | 0.496 | 0.439 | 0.677 | 0.731 | 0.992 | 0.41 | 0.53 | 0.494 | 0.443 | 0.486 | 0.7 | 0.433
6 | ASFSLYEPAKM [MKI67_Y340_P338S] | 1 | 0.613 | 0.793 | 3.48 | 1.25 | 1.27 | 0.825 | 0.954 | 1.28 | 6.24 | 0.563 | 5.28 | 0.518 | 0.769 | 1.27 | 9.33
7 | ASNFNYFYHRE [KCNA1_Y413_V408A] | 0.695 | 0.697 | 1.02 | 0.428 | 0.497 | 0.504 | 0.476 | 0.732 | 0.964 | 0.582 | 0.956 | 0.65 | 1.1 | 0.398 | 0.95 | 0.455
8 | ASTHVYQIMNH [ITK_Y588] | 0.73 | 14.3 | 0.833 | 2 | 2.58 | 1.39 | 0.623 | 0.55 | 0.722 | 0.991 | 0.423 | 0.487 | 0.508 | 1.61 | 0.703 | 1.34
9 | ATVRPYRPYII [LRP5_Y1528_A1525V] | 0.765 | 0.482 | 0.657 | 0.43 | 0.586 | 0.518 | 0.677 | 0.564 | 0.715 | 0.499 | 0.591 | 0.552 | 0.53 | 0.484 | 0.777 | 0.462
10 | AVRYIYTIDGS [DCX_Y105_G100A] | 0.979 | 0.76 | 20.1 | 1.41 | 3.18 | 3.86 | 0.727 | 0.972 | 1.2 | 0.65 | 0.709 | 0.552 | 0.579 | 0.629 | 0.948 | 0.439
11 | CCKNRYDKDKP [THAP1_Y14_G9C] | 1.01 | 0.542 | 0.686 | 0.384 | 0.345 | 0.33 | 0.381 | 0.429 | 0.5 | 0.29 | 0.419 | 0.28 | 0.465 | 0.486 | 0.455 | 0.345
12 | CDIARYIVSQL [MAST2_Y461_P459A] | 0.866 | 0.578 | 0.793 | 0.559 | 0.478 | 0.447 | 0.667 | 0.827 | 1.12 | 0.594 | 0.733 | 0.542 | 0.553 | 0.43 | 0.919 | 0.505
13 | CDTKLYTSVPN [DNTTIP2_Y427_A430V] | 0.728 | 1.22 | 0.48 | 1.01 | 0.849 | 0.655 | 0.755 | 0.842 | 1.12 | 1.11 | 0.797 | 0.77 | 0.62 | 1.5 | 0.96 | 1.27
14 | CEAMEYLESKQ [BTK_Y511] | 0.676 | 0.402 | 0.553 | 0.751 | 0.839 | 0.557 | 1.36 | 1.89 | 1.95 | 0.882 | 1.01 | 0.811 | 0.655 | 0.688 | 1.94 | 0.788
